Measurements published in PMC5021511 (Methods in cell biology, 2016).

Biological target: the molecule itself
Test: FRET or BRET

B1: Cdc11(E294C)-capped and otherwise Cys-less septin heterooctamer, labeled with AF555-maleimide (donor) or AF647-maleimide (acceptor) (complex, S. cerevisiae)
chain 1: MSGIIDASSALRKRKHLKRGITFTVMIVGQSGSGRSTFINTLFGQQVVDTSTTILLPTDTSTEIDLQLREETVELEDDEGVKIQLNIIDTPGFGDSLDNSPSFEIISDYIRHQYDEILLEESRVRRNPRFKDGRVHAALYLINPTGHGLKEIDVEFIRQLGSLVNIIPVISKSDSLTRDELKLNKKLIMEDIDRWNLPIYNFPFDEDEISDEDYETNMYLRTLLPFAIIGSNEVYEMGGDVGTIRGRKYPWGILDVEDSSISDFVILRNALLISHLHDLKNYTHEILYERYRTCALSGESVAAESIRPNLTKLNGSSSSSTTTRRNTNPFKQSNNINNDVLNPASDMHGQSTGENNETYMTREEQIRLEEERLKAFEERVQQELLLKRQELLQREKELREIEARLEKEAKIKQEE
chain 2: MSAATATAAPVPPPVGISNLPNQRYKIVNEEGGTFTVMLAGESGLGKTTFINTLFQTVLKRADGQQHRQEPIRKTVEIDITRALLEEKHFELRVNVIDTPGFGDNVNNNKAWQPLVDFIDDQHDSYMRQEQQPYRTKKFDLRVHAVLYFIRPTGHGLKPIDIETMKRLSTRANLIPVIAKADTLTAQELQQFKSRIRQVIEAQEIRIFTPPLDADSKEDAKSGSNPDSAAVEHARQLIEAMPFAIVGSEKKFDNGQGTQVVARKYPWGLVEIENDSHSDFRKLRALLLRTYLLDLISTTQEMHYETYRRLRLEGHENTGEGNEDFTLPAIAPARKLSHNPRYKEEENALKKYFTDQVKAEEQRFRQWEQNIVNERIRLNGDLEEIQGKVKKLEEQVKSLQVKKSHLK
chain 3: MSLKEEQVSIKQDPEQEERQHDQFNDVQIKQESQDHDGVDSQYTNGTQNDDSERFEAAESDVKVEPGLGMGITSSQSEKGQVLPDQPEIKFIRRQINGYVGFANLPKQWHRRSIKNGFSFNLLVVGPDGIGKTTLMKTLFNNDDIEANLVKDYEEELANDQEEEEGQGEGHENQSQEQRHKVKIKSYESVIEENGVKLNLNVIDTEGFGDFLNNDQKSWDPIIKEIDSRFDQYLDAENKINRHSINDKRIHAVLYFIEPTGHYLKPLDLKFMQSVYEKVNLIPVIAKSDILTDEEILSFKKTIMNQLIQSNIELFKPPIYSNDDAENSHLSERLFSSLPYAVIGSNDIVENYSGNQVRGRSYPWGVIEVDNDNHSDFNLLKNLLIKQFMEELKERTSKILYENYRSSKLAKLGIKQDNSVFKEFDPISKQQEEKTLHEAKLAKLEIEMKTVFQQKVSEKEKKLQKSETELFARHKEMKEKLTKQLKALEDKKKQLELSINSASPNVNHSPVPTKKKGFLR
chain 4: MDPLSSVQPASYVGFDTITNQIEHRLLKKGFQFNIMVVGQSGLGKSTLINTLFASHLIDSATGDDISALPVTKTTEMKISTHTLVEDRVRLNINVIDTPGFGDFIDNSKAWEPIVKYIKEQHSQYLRKELTAQRERFITDTRVHAILYFLQPNGKELSRLDVEALKRLTEIANVIPVIGKSDTLTLDERTEFRELIQNEFEKYNFKIYPYDSEELTDEELELNRSVRSIIPFAVVGSENEIEINGETFRGRKTRWSAINVEDINQSDFVYLREFLIRTHLQDLIETTSYIHYEGFRARQLIALKENANSRSSAHMSSNAIQR
modifications: Alexa Fluor 555 maleimide (donor batch) or Alexa Fluor 647 maleimide (acceptor batch) on C294
  Kd: 24.3 ± 13.7 nM
